Assay results from article PMC10776578, “Epstein-Barr virus-driven B cell lymphoma mediated by a direct LMP1-TRAF6 complex” (Nature Communications, 2024).

B1: unnamed (parent)
chain 1: DHQIRELTAKMETQSMYVSELKRTIRTLEDKVAEIEAQQCNGIYIWKIGNFGMHLKCQEEEKPVVIHSPGFYTGKPGYKLCMRLHLQLPTAQRCANYISLFVHTMQGEYDSHLPWPFQGTIRLTILDQSEAPVRQNHEEIMDAKPELLAFQRPTIPRNPKGFGYVTFMHLEALRQRTFIKDDTLLVRCEVSTRFDMGSLRREGFQPRSTDAGV
chain 2: KKVAKKPTNKAPHPKQEPQEINFPDDLPGSNTAAPVQETLHGCQPVTQEDGKESRISVQERQ
B2: unnamed (parent)
chain 1: B1 chain 1
chain 2: GGGPYAQGEDARMLSLVSKTEIEEDSFRQMPTEDEYMDRPSQ
B3: unnamed (parent)
chain 1: MSLLNCENSCGSSQSESDCCVAMASSCSAVTKDDSVGGTASTGNLSSSFMEEIQGYDVEFDPPLESKYECPICLMALREAVQTPCGHRFCKACIIKSIRDAGHKCPVDNEILLENQLFPDNFAKREILSLMVKCPNEGCLHKMELRHLEDHQAHCEFALMDCPQCQRPFQKFHINIHILKDCPRRQVSCDNCAASMAFEDKEIHDQNCPLANVICEYCNTILIREQMPNHYDLDCPTAPIPCTFSTFGCHEKMQRNHLARHLQENTQSHMRMLAQAVHSLSVIPDSGYISEVRNFQETIHQLEGRLVRQDHQIRELTAKMETQSMYVSELKRTIRTLEDKVAEIEAQQCNGIYIWKIGNFGMHLKCQEEEKPVVIHSPGFYTGKPGYKLCMRLHLQLPTAQRCANYISLFVHTMQGEYDSHLPWPFQGTIRLTILDQSEAPVRQNHEEIMDAKPELLAFQRPTIPRNPKGFGYVTFMHLEALRQRTFIKDDTLLVRCEVSTRFDMGSLRREGFQPRSTDAGV
chain 2: MEHDLERGPPGPRRPPRGPPLSSSLGLALLLLLLALLFWLYIVMSDWTGGALLVLYSFALMLIIIILIIFIFRRDLLCPLGALCILLLMITLLLIALWNLHGQALFLGIVLFIFGCLLVLGIWIYLLEMLWRLGATIWQLLAFFLAFFLDLILLIIALYLQQNWWTLLVDLLWLLLFLAILIWMYYHGQRHSDEHHHDDSLPHPQQATDDSGHESDSNSNEGRHHLLVSGAGDGPPLCSQNLGAPGGGPDNGPQDPDNTDDNGPQDPDNTDDNGPHDPLPQDPDNTDDNGPQDPDNTDDNGPHDPLPHSPSDSAGNDGGPPQLTEEVENKGGDQGPPLMTDGGGGHSHDSGHGGGDPHLPTLLLGSSGSGGDDDDPHGPVQLSYYD
B4: unnamed (parent)
chain 1: B1 chain 1
chain 2: LIWMYYHGQRHSDEHHHDDSLPHPQQATDDSGHESDSNSNEGRHHLLVSGAGDGPPLCSQNLGAPGGGPDNGPQDPDNTDDNGPQDPDNTDDNGPHDPLPQDPDNTDDNGPQDPDNTDDNGPHDPLPHSPSDSAGNDGGPPQLTEEVENKGGDQGPPLMTDGGGGHSHDSGHGGGDPHLPTLLLGSSGSGGDDDDPHGPVQLSYYD

Variants of: B1
Assay: AlphaScreen
Settings: with partner chain of the complex shown; parent: 100; read off a plot

Row | Variant | percent of parent [%]
1 | chain 1 R83A | 85
2 | chain 1 Y164A | 1
3 | chain 1 K160A | 90
4 | chain 1 F162A | 1

Variants of: B2
Assay: AlphaScreen
Settings: with partner chain of the complex shown; parent: 100; read off a plot

Row | Variant | percent of parent [%]
5 | chain 1 F162A | 1
6 | chain 1 R83A | 1

Same assay, conditions: with partner chain of the complex shown

Row | Variant | Kd [nM]
7 | chain 2 E33Q | 15.6

Variants of: B3
Assay: co-immunoprecipitation, quantified immunoblot
Settings: with partner chain of the complex shown; HEK293 cells; parent: 1.3e+07; read off a plot

Row | Variant | response (relative intensity)
8 | chain 1 K469A | 1.8e+07
9 | chain 1 Y473A | 5.5e+06
10 | chain 1 R392A | 2.5e+06
11 | chain 1 F471A | 6e+06

Variants of: B4
Assay: AlphaScreen
Settings: with partner chain of the complex shown; 100 nM His-TRAF6; parent: 100; read off a plot

Row | Variant | percent of parent [%]
12 | chain 2 Q201A | 7
13 | chain 2 Y205A | 47
14 | chain 2 P199A | 18
15 | chain 2 S203A | 94
16 | chain 2 L202A | 100
17 | chain 2 P24A Q26A T28A | 83
18 | chain 2 G198A | 75
19 | chain 2 V200A | 15
20 | chain 2 Y204A | 11

Same assay, conditions: with partner chain of the complex shown; 300 nM His-TRAF6; parent: 100; read off a plot

Row | Variant | percent of parent [%]
21 | chain 2 Q201A | 6
22 | chain 2 Y205A | 65
23 | chain 2 P199A | 19
24 | chain 2 S203A | 88
25 | chain 2 L202A | 98
26 | chain 2 P24A Q26A T28A | 98
27 | chain 2 G198A | 84
28 | chain 2 V200A | 15
29 | chain 2 Y204A | 10

Same assay, conditions: with partner chain of the complex shown; 1000 nM His-TRAF6; parent: 100; read off a plot

Row | Variant | percent of parent [%]
30 | chain 2 Q201A | 4
31 | chain 2 Y205A | 84
32 | chain 2 P199A | 21
33 | chain 2 S203A | 90
34 | chain 2 L202A | 98
35 | chain 2 P24A Q26A T28A | 92
36 | chain 2 G198A | 96
37 | chain 2 V200A | 14
38 | chain 2 Y204A | 9

Same assay, conditions: with partner chain of the complex shown; parent: 100; read off a plot

Row | Variant | percent of parent [%]
39 | chain 1 K160A | 100
40 | chain 1 R83A | 4
41 | chain 1 F162A | 5

Same assay, conditions: with partner chain of the complex shown

Row | Variant | Kd [nM]
42 | chain 2 Y204F | 21.7
